Assay [1] has as its target T1, recombinant human FOLR1-murine IgG2a Fc protein (human; murine, UniProt P15328 25-234, limits assumed).
T1 construct: also called humanFOLR1-murine Fc2a; FOLR1-Fc; not shown: murine IgG2a Fc
Briefly: ELISA, recombinant human FOLR1-murine Fc2a immobilized on the plate, hrp goat anti-murine secondary. The protocol: The binding affinity of the anti-FOLR1 antibodies was examined by ELISA where recombinant humanFOLR1-murine Fc2a protein was used as the antigen. The recombinant protein was immobilized on microtiter plates, and the antibodies were added at a range of concentrations to the plates. The plates were incubated for two hours at room temperature, washed with PBS supplemented with 0.05% Tween-20, and incubated with hrp-labeled goat anti-murine secondary antibody for one hour at room temperature. The plates were washed with PBS/Tween-20 again, and bound hrp-conjugated antibody was detected by adding the hrp-substrate TMB (Bio-FX).

Assay [2] has as its target T2, recombinant FOLR2-His (R&D Systems) (UniProt P14207 17-228, limits assumed).
T2 construct: not shown: His tag
Briefly: ELISA, FOLR2-His immobilized on Ni-NTA plate. The procedure:
(§1) FOLR1 is a member of Folate Receptor family. Cross-reactivity of the anti-FOLR1 antibodies with the other members of the family FOLR2 and FOLR3 was assayed by ELISA. Recombinant protein FOLR2-His or FOLR3-His (R&D Systems) was immobilized to Ni-NTA plates (QIAGEN) and the anti-FOLR1 antibodies were added to the plates and incubated for 2 hours at room temperature. As positive controls for FOLR2 and FOLR3 ELISA polyclonal anti-FOLR2 and FOLR3 antibodies (R&D systems), respectively, were used. The formed antibody-antigen complexes were detected with hip-labeled goat anti-murine secondary antibody.
(In general: ELISA stands for enzyme-linked immunosorbent assay.)

Assay [3] concerns the target T3, recombinant FOLR3-His (R&D Systems) (UniProt P41439 23-245, limits assumed).
T3 construct: not shown: His tag
Briefly: ELISA, FOLR3-His immobilized on Ni-NTA plate. The procedure: as §1

For assay [4], the target named is T4, human folate receptor 1 (FOLR1) on cells, in cell lysates and in FFPE tissues (human, UniProt P15328 25-234, N-glycosylated at positions 69, 161 and 201).
T4 construct: also called folate receptor alpha; FR-alpha
T4 sequence (P15328 25-234): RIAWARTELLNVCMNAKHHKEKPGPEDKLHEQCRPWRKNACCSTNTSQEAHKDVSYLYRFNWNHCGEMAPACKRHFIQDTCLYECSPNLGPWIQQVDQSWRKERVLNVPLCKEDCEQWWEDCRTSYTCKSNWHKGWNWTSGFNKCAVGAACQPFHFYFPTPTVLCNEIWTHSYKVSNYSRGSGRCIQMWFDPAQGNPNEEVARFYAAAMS
Description: Western blot of cell lysates. The procedure: (§2) Human FOLR1 has three potential sites for N-glycosylation at positions 69, 161 and 201 (UniProt), and, as reported in literature, all three sites are glycosylated. To characterize the nature of the epitopes recognized by the anti-FOLR1 antibodies described herein, binding experiments were performed with deglycosylated and non-treated receptor. Of the generated anti-FOLR1 clones, only clone 2.1 was used in the study because, based on the sequencing data, the clones are related and likely to bind to the same epitope. In addition to clone 2.1, two other anti-FOLR1 antibodies were included: huMov19 (WO 2011/106528) and clone BN3.2 (Leica). In order to deglycosylate FOLR1, recombinant human FOLR1 or lysates of FOLR1-positive KB or Igrov-1 cells were treated with a mixture of deglycosylation enzymes (Enzymatic DeGlycoMX Kit, QA-bio) according to the Manufacturer's protocol. Then, samples of treated and non-treated FOLR1 were used in ELISA and Western blot analysis. […] After 2 h incubation, antibody-antigen complexes were detected with hip-labeled goat anti-human (for huMov19) or anti-murine (for 2.1) secondary antibody (FIG. 7). […] The membrane was incubated with the anti-FOLR1 antibodies 2.1, huMov19, or BN3.2, and the antigen-antibody complexes were detected with the appropriate secondary anti-murine or anti human antibodies conjugated with horse-radish peroxidase (FIG. 8).

Assay [5] deals with T5, deglycosylated human FOLR1 in lysates of KB and Igrov-1 cells (human, UniProt P15328 25-234, glycans removed with a mixture of deglycosylation enzymes (Enzymatic DeGlycoMX Kit)).
T5 construct: Endogenous FOLR1 of cell lysates after enzymatic deglycosylation; also called deglycosylated lysates
T5 sequence (P15328 25-234): as above
Description: Western blot of enzymatically deglycosylated cell lysates. The protocol: as §2
In general terms: A western blot detects proteins with antibodies after separation by electrophoresis.

Assay [6] concerns the target T6, deglycosylated recombinant human FOLR1 (human, UniProt P15328 25-233, limits assumed, glycans removed with a mixture of deglycosylation enzymes (Enzymatic DeGlycoMX Kit)).
T6 construct: also called deglycosylated FOLR1
Briefly: ELISA, deglycosylated FOLR1 immobilized on the plate, hrp goat anti-human secondary. The procedure: as §2

The target of assay [7] is T7, recombinant human FOLR1 (non-treated) (human, UniProt P15328 25-233, limits assumed, N-glycosylated (non-treated)).
T7 construct: also called huFOLR1 recombinant protein; non-treated FOLR1
T7 sequence (P15328 25-233 limits assumed): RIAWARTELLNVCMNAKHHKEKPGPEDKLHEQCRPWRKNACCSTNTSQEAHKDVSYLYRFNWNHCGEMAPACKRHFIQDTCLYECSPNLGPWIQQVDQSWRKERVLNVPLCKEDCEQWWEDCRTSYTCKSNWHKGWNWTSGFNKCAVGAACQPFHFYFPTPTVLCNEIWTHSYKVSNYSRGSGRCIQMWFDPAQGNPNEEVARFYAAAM
Briefly: ELISA, FOLR1 immobilized on the plate, hrp goat anti-human secondary. The procedure: as §2

Broadly, the EC50 is the concentration needed to bring the measured effect to its halfway point.

T2 sequence (P14207 17-228 limits assumed): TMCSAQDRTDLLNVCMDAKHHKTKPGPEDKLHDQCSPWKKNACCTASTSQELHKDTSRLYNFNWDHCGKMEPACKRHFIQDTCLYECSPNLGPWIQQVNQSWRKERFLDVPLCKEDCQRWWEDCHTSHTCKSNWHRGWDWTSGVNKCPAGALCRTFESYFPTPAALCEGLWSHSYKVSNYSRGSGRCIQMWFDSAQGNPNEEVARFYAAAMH
T3 sequence (P41439 23-245 limits assumed): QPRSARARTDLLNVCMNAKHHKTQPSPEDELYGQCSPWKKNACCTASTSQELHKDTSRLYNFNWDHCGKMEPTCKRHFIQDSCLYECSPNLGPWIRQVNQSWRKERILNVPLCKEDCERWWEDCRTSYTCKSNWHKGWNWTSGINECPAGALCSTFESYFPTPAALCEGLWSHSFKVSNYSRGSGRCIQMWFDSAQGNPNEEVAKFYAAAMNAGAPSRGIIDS
T1 sequence (P15328 25-234 limits assumed): as the sequence (P15328 25-234) above
T6 sequence (P15328 25-233 limits assumed): as the sequence (P15328 25-233 limits assumed) above

B1: muFRIHC2-1 (anti-FOLR1 antibody 353.2-1, ATCC PTA-120197) (antibody, mouse IgG1, kappa, V domains shown)
VH: QVQLQQSGPELVKPGASVRISCKASGYTFTNSYIHWVKKRPGQGLEWIGWIYPESLNTQYNEKFKAKATLTADKSSSTSYMQLSSLTSEDSAVYFCARRGIYYYSPYALDHWGQGASVTVSS
VL: DVVLTQTPLSLPVNIGDQASISCKSSKSLLNSDGFTYLDWYLQKPGQSPQLLIYLVSNHFSGVPDRFSGSGSGTDFTLKISRVEAEDLGVYYCFQSNYLPLTFGGGTKLEIKR
notes: also called FOLR1-2.1
For the molecule B1, in assay [1], the EC50 came to 0.5 nM. Moreover, the binding result is “no binding (tested: 10^-8 M)” in assay [2] and “no binding (tested: about 3x10^-8 M)” in assay [3].

B2: muFRIHC5-7 (anti-FOLR1 antibody 353.5-7) (antibody, mouse IgG1, kappa, V domains shown)
VH: QVQLQQSGPEVVKPGASVRISCKASGYTFTNYYIHWVKQRPGQGLEWIGWIYPGSFNVEYNEKFKAKATLTADKSSSTVYMQLSSLTSEDSAVYFCARRGIYFYSPYALDYWGQGASVTVSS
VL: DVVLTQTPLSLPVNIGDQASISCKSTESLLNSDGFTYLDWYLQKPGQSPQLLIYLVSNHFSGVPDRFSGSGSGTDFTLKISRVEAEDLGVYYCFQSNYLPLTFGGGTKLEVKR
notes: Murine monoclonal; also called clone 5.7
With B2, the binding result in assay [2] is reported as “no binding (tested: 10^-8 M)”; in assay [3] it was “no binding (tested: about 3x10^-8 M)”.

B3: anti-FOLR1 antibody 353.9-21 (antibody, mouse IgG1, kappa, V domains shown)
VH: QVQLQQSGPDLVKPGASVRISCKASGFTFTNYYIHWVKQRPGQGLEWIGWIYPENVNVRYNDKFKAKATLTADKSSSTAYMQLSSLTSEDSAVYFCARRGIYYYSPYAMDYWGQGASVTVSS
VL: DVVLTQTPLSLPVNLGDQASISCKSTKSLLNSDGFTYLDWYLQKPGQSPQLLIYLVSNHFSGVPDRFSGSGSGTDFTLKISRVEAEDLGVYYCFQSNYLPLTFGGGTKLEIKR
notes: Sister subclone of 9.20; also called clone 9.21
Turning to B3, the results for the binding result in assay [2] and in assay [3] were “no binding (tested: 10^-8 M)” and “no binding (tested: about 3x10^-8 M)”, respectively.

B4: huMov19 (antibody, human IgG1, kappa, V domains shown)
VH: QVQLVQSGAEVVKPGASVKISCKASGYTFTGYFMNWVKQSPGQSLEWIGRIHPYDGDTFYNQKFQGKATLTVDKSSNTAHMELLSLTSEDFAVYYCTRYDGSRAMDYWGQGTTVTVSS
VL: DIVLTQSPLSLAVSLGQPAIISCKASQSVSFAGTSLMHWYHQKPGQQPRLLIYRASNLEAGVPDRFSGSGSKTDFTLTISPVEAEDAATYYCQQSREYPYTFGGGTKLEIKR
notes: the full chains labelled huMov19 HC (55) and huMov19 LCv1.60 (57) are used; also called M9346A; antibody of IMGN853
Regarding B4, the binding result in assay [4], in assay [5], in assay [6] and in assay [7] was “binds” throughout.
